We go through 3 substances from publication PMC7299280.

Experiment [1] deals with SARS-CoV-2 spike (S) protein, recombinant (SARS-CoV-2) (UniProt P0DTC2).
For experiment [2] the target is unchanged. This is another data set of the same source.

Consider CC6.33 (antibody), for which, in experiment [1], the neutralization IC50 of SARS-CoV-2 pseudovirus (complete neutralization) turned out to be 0.039 µg/mL.
For the substance CC12.1 (antibody), in experiment [2], the in vitro IC50 neutralization against pseudovirus; pair blocked: S with ACE2 was 0.019 µg/mL.
CC12.23 (antibody): in experiment [2], the IC50 neutralization (pseudovirus) amounted to 22 µg/mL.
